The text below walks through data of publication PMC8038350, “Nordihydroguaiaretic Acid as a Novel Substrate and Inhibitor of Catechol O-Methyltransferase Modulates 4-Hydroxyestradiol-Induced Cyto- and Genotoxicity in MCF-7 Cells” (Molecules, 2021).

Substrate in the data set: [H][C@@]12CCc3c(ccc(O)c3O)[C@@]1([H])CC[C@]1(C)[C@@H](O)CC[C@@]21[H]
Briefly: enzyme kinetics of O-methylation by recombinant COMT, HPLC-DAD (Km). Type of data set: biochemical, Homo sapiens. Particulars: S-adenosyl-L-methionine (SAM).

B1: catechol O-methyl transferase (COMT) (Homo sapiens) (protein)
chain: MGDTKEQRILNHVLQHAEPGNAQSVLEAIDTYCEQKEWAMNVGDKKGKIVDAVIQEHQPSVLLELGAYCGYSAVRMARLLSPGARLITIEINPDCAAITQRMVDFAGVKDKVTLVVGASQDIIPQLKKKYDVDTLDMVFLDHWKDRYLPDTLLLEECGLLRKGTVLLADNVICPGAPDFLAHVRGSSCFECTHYQSFLEYREVVDGLEKAIYKGPGSEAGP
notes: recombinant human soluble COMT, hexahistidine-tagged
Usually Km stands for the substrate concentration at which the rate is half of its maximum. The term Vmax denotes the top rate of the reaction or transport when substrate is in excess. As to B1, the Km (Mg2+) worked out at 37.9 µM. Moreover, the maximal velocity (Vmax) (Mg2+ docking only: active site, hydrogen bonds with Glu199 and Asn170) is 3.26 µmol/min/mg.
